From patent publication US20070111265A1 (published 2007)

T1: human MR LBD (residues 727-984) containing a C808S mutation, 6xHis-GST fusion protein (;human, UniProt P08235 727-984)
T1 chain: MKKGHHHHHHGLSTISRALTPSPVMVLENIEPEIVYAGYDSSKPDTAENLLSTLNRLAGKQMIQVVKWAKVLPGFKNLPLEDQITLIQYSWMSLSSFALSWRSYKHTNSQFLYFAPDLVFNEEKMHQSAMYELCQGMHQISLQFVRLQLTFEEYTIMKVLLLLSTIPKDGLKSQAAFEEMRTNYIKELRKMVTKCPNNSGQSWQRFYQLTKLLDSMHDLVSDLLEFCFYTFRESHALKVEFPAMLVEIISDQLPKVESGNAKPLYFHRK

B1: PGC1α-(1+2), human PGC1α fragment (residues 1-220) containing both LXXLL motifs, 6xHis-GST fusion protein (other)
chain: MAWDMCNQDSESVWSDIECAALVGEDQPLCPDLPELDLSELDVNDLDTDSFLGGLKWCSDQSEIISNQYNNEPSNIFEKIDEENEANLLAVLTETLDSLPVDEDGLPSFDALTDGDVTTDNEASPSSMPDGTPPPQEAEEPSLLKKLLLAPANTQLSYNECSGLSTQNHANHNHRIRTNPAIVKTENSWSNKAKSICQQQKPQRRPCSELLKYLTTNDDP

Assays:
[1] = molecular target: T1, human MR LBD (residues 727-984) …; experiment: AlphaScreen peptide competition; corticosterone
[2] = molecular target: T1, human MR LBD (residues 727-984) …; experiment: AlphaScreen competition; corticosterone

Row | Binder | IC50 [1] [nM] | IC50 [2] [nM]
1 | AEEPSLLKKLLLAPA [unlabeled PGC1α-1 peptide] | 900 | –
2 | RRPCSELLKYLTTND [unlabeled PGC1α-2 peptide] | 1100 | –
3 | B1 | – | 40
